Experimental data from the nanobody polyreactivity screen of Harvey et al. (2022).

Experiment: yeast display, Sf9 membrane polyspecificity reagent, FACS + sequencing; frameworks hold sequencing errors
Summary of the method: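 Nanobodies came from a synthetic yeast display library in Saccharomyces cerevisiae BJ5465, induced with galactose for 36–48 hours and stained for 1 hour at 4 °C with 10% biotinylated, detergent-solubilized Sf9 membrane reagent. Cells were enriched on streptavidin microbeads and then FACS-sorted, with low and high (top ~1%) gates set on anti-HA fluorescence for expression and streptavidin fluorescence for reagent binding. Each polyreactivity label reflects the gate a clone came from. Genes were amplified by colony PCR, sequenced by MiSeq 2 × 250 and filtered by CDR length.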

Sequence	polyreactivity (PSR sort gate)
QVQLVESGGGLVQAGGSLRLSCAASGFTFWFYAMGWYRQAPGKEREFVAGISRRGGSTYYADSVKGRFTISRDNAKNTVYLQMNSLKPEDTAVYYCASRQFHNGVTTAGYGYWGQGTQVTVSS	high polyreactivity
QVQLVESGGGLVQAGGSLRLSCAASGFTFWRNTMGCSRQAPGKETEFVAAIDWSGGSTTYAVSVKGRFTFSRDNAKNSVYLQMNSLKPEDTAVYYCAAAERRRHYWWGQESDYWGQGTQVTVSS	low polyreactivity
QVQLVESGGGLVQAGGSLRLSCAASGFTFWRYAMGWYRQAPGKDRELVAAISWRGSSTYYADSVKGRFTISRDNAMNTVYLQMNSLKPEDTAVSYCARYQSTYDSTYNYWGQGTQVTVSS	high polyreactivity
QVQLVESGGGLVQAGGSLRLSCAASGFTFWRYAMGWYRQAPGKERELVAAISRNGGRTYYADSVKGRFTISRDNAKNTVYLQMNSLKPEDTAVYYCAADSDIEYEYWGQGTQVTVSS	high polyreactivity
QVQLVESGGGLVQAGGSLRLSCAASGFTFWRYAMGWYRQAPGKERELVAAISRTGGRTYYADSVKGRFTISRDNAKNTVYLQMNSLKPEDTAVYYCAAVKYETYRYNYDYWGQGTQVTVSS	high polyreactivity
QVQLVESGGGLVQAGGSLRLSCAASGFTFWVYAMGWYRQATGKEREFVASISWTGDTTYYADSVKGRFTISRDNAKNTVYLQMNSLKPEDTAVYYCAVDTILGYDYWGQGTQVTVSS	low polyreactivity
QVQLVESGGGLVQAGGSLRLSCAASGFTFWYNDMGWYRQAPGKEREFVAAITTSGGNTYYADSVKGRFTISRDNAKNTVYLNMNSLIPEDTAVYYCAAEEGSSDATGYDYWGQGTQVTVSS	low polyreactivity
QVQLVESGGGLVQAGGSLRLSCAASGFTFWYNDMGWYRQAPGKEREFVAAITTSGGNTYYADSVKGRFTISRDNAKNTVYLQMNSLKPEDTAVYYCAAEEGSSDATGYDYWGQGTQVTVSS	low polyreactivity
QVQLVESGGGLVQAGGSLRLSCAASGFTFWYYAMGWYRQAPGKEREFVASISWNGGRTYYADSVKGRITISRDNAKNTVYLQMNSLKPEDTAVYYCATRVIYSFTDLKGDYWGQGTLVTVSS	high polyreactivity
QVQLVESGGGLVQAGGSLRLSCAASGFTFWYYAMGWYRQAPGKERELVAAITRGGSTNYADSVKGRFTISRDNAKNTVYLQMNSLKPEDTAVYYCAKRQGYPTYRRYDYWGQGTQVTVSS	high polyreactivity
QVQLVESGGGLVQAGGSLRLSCAASGFTFWYYAMGWYRQAPGKERELVATISRGGGSTYYADSVKGRFTISRDNAKNTVYLQMNSLKPEDTAVYYCAAETVRWWWLYDYWGQGTQVTVSS	high polyreactivity
QVQLVESGGGLVQAGGSLRLSCAASGFTFWYYSMGWYRQAPGKERELVASISRTGGTTYYADSVKGRFTISRDNAKNTVYLQLNSLKPEDTAVYYCNARPKVYYREYDYWGQGTQVTVSS	high polyreactivity
QVQLVESGGGLVQAGGSLRLSCAASGFTFYANAMGWYRQAPGKERELVAAIDQSGTSTNYADSVKGRFTISRDNAKNTVYLQMNSLKPEDTAVYYCAADSSFYYYPLILFWGDYWGQGTQVTVSS	low polyreactivity
QVQLVESGGGLVQAGGSLRLSCAASGFTFYAYAMGWYGQAPGKERELVAAITGRGGSTYYADSVKGRFTISRDNAKNTVYLQMNSLKPEDTAVYYCNKVKKSDKFNNFSNDYWGQGTQVTVSS	high polyreactivity
QVQLVESGGGLVQAGGSLRLSCAASGFTFYDYAMGWYRQAPGKEREFVAAITWSGSSTYYADSVKGRFTISRDNAKNTVYLQMNSLKPEVTAVYYCAVGPFRRRGHYPTYYRYGYWGQGTQVTVSS	high polyreactivity
QVQLVESGGGLVQAGGSLRLSCAASGFTFYFNAMGWYRQAPGKERELVAGITSGGSTNYADSVKGRFTISRDNAKNTVYLQMNSLKPEDTAVYYCATDLLNNVDYDYWGQGTQVTVSS	low polyreactivity
QVQLVESGGGLVQAGGSLRLSCAASGFTFYFYAMGWYRQAPGKERELVAAISRGGSTTYADSVKGRFTISRDNAKNTVYLQMNSLKPEDTAVYYCAVGYDIVRYSYSPFYRYDYWGQGTQVTVSS	low polyreactivity
QVQLVESGGGLVQAGGSLRLSCAASGFTFYGNAMGWYRHAPGKERELVAAIRSGGITYYADSVKGRFTISRDNAKNTVYLQMNSLKPEDTSVYYCAAYSDYYLDQWYGYWGQGTQVTVSS	low polyreactivity
QVQLVESGGGLVQAGGSLRLSCAASGFTFYGNAMGWYRQAPGKERELVAAISSRVGRTYYADSVKGRFTISRDNAKNTVYLQMNSLKPEDTAVYYCAKAPYGVRRGLYDYWGQGTQVTVSS	high polyreactivity
QVQLVESGGGLVQAGGSLRLSCAASGFTFYGNAMGWYRQAPGKERELVAAISSTGGSTFYADSVKGRFTISRDNAKNTVYLQMNSLKPEDTAVYYCAVRRYTKFRSTRYYYWGQGTQVTVSS	high polyreactivity
QVQLVESGGGLVQAGGSLRLSCAASGFTFYGYAMGWYRQAPGKERELVAAISTRGSRTYYADSVKGRFTISRDNAKNTVYLQMNSLKPEDTAVYYCARRRGPSYGLDYWGQGTQVTVSS	high polyreactivity
QVQLVESGGGLVQAGGSLRLSCAASGFTFYGYAMGWYRQAPGKERELVASINRSGGTTYYADSVKGRFTISRDNAKNTVYLQMNSLKPEDTAVYYCAASYVYRFTKYYYWGQGTQVTVSS	high polyreactivity

Sequence	polyreactivity (PSR sort gate)
QVQLVESGGGLVQAGGSLRLSCAASGFTFYGYGMGWYRQAPGKERELVAGISSGGGSTIYADSVKGRFTISRDNAKNTVYLQMNSLKPEDTAVYYCAADYWPYSYDTYPAEFDYWGQGTQVTVSS	low polyreactivity
QVQLVESGGGLVQAGGSLRLSCAASGFTFYHNAMGWYRQAPGKERELVATITARGGRTYYADSVKGRFTISRDNAKNTVYLQMNSLKPVDTAVYYCNVKASRGYTYEYDYWGQGTQVTVSS	high polyreactivity
QVQLVESGGGLVQAGGSLRLSCAASGFTFYKYTMGWYRQAPGKERELVAAISARGGSTYYADSVKGRFTISRDNAKNTVYLQMNSLKPEDTSVYYCAADFWRTYGLGYDYWGQGTQVTVSS	high polyreactivity
QVQLVESGGGLVQAGGSLRLSCAASGFTFYKYVMGWYRQAPGKERELVAAITQGGGSTYYADSVKGRFTISRDNAKNTVYLQMNSLKPEDTAVYYCAAVTRGSRGVNFGYWGQGTQVTVSS	high polyreactivity
QVQLVESGGGLVQAGGSLRLSCAASGFTFYLYTIGWYRQAPWKERELVATITSDGGTNYADSVKVRFTISRDNAKNTLYLQMNSLKPEDTAVYYCNAASRRGSRKQAKYDYWGQGTQVTVSS	low polyreactivity
QVQLVESGGGLVQAGGSLRLSCAASGFTFYLYTMGWYRQAPGKERELVAAISWRGGGTYYADSVKGRFTISRDNAKNTVYLQMNSLKPEDTAVYYCAAYWRRRLDYYYWGQGTQVTVSS	high polyreactivity
QVQLVESGGGLVQAGGSLRLSCAASGFTFYLYTMGWYRQAPGKERELVATINSDGGTNYADSVKGRFTISRDNAKNSVYLQMNSLKPEDTAVYYCNAASRRGSRKQAKYEYWGQGTQVTVSS	low polyreactivity
QVQLVESGGGLVQAGGSLRLSCAASGFTFYNNAMGWYRQAPGKERELVAVITSNGGRTYYADSVKGRFTISRDNAKNTVYLQMNSLKPEDTAVYYCAKDYKALYLYHYRISGGDVDYWGQGTQVTVSS	low polyreactivity
QVQLVESGGGLVQAGGSLRLSCAASGFTFYPYAMGWYRQAPGKERELVAAITSGGRTNYADSVKGRFTISRDNAKNTVYLQMNSLKPEDTAVYYCNTVSWWGRNYQDEYYYWGQGTQVTVSS	high polyreactivity
QVQLVESGGGLVQAGGSLRLSCAASGFTFYPYTMGWYRQAPGKERELVAAISSSGGSTYYADSVKGRFTISRDNAKNTVYLQMNSLKPEDTAVYYCNKYQRNWFSRAPMDYWGQGTQVTVSS	high polyreactivity
QVQLVESGGGLVQAGGSLRLSCAASGFTFYPYVMGWYRQAPGKERELVAAINSGGARTYYADSVKGRFTISRDNAKNTVYLQMNSLKPEDTAVYYCAARTVVGGRIYYYWGQGTQVTVSS	high polyreactivity
QVQLVESGGGLVQAGGSLRLSCAASGFTFYQNAMGWYRQAPGKVRELVAAIDRRGGRTYNADSVKGRFTISRDNAKKTVYLQMNSLKPEDTAVYYCNKEKYYTGYDYWGQGTQVTVSS	high polyreactivity
QVQLVESGGGLVQAGGSLRLSCAASGFTFYQYAMGWYRQAPGKERELVAAITRRGGSTSYADSVKGRFTISRDNAKNTVYLQMNSLKPEDTAVYYCAREGSNSGRHGTLFDYWGQGTQVTVSS	high polyreactivity
QVQLVESGGGLVQAGGSLRLSCAASGFTFYRNAMGWYRQAPGKERELVAAITWSGTSTYYADSVKGRFTISRDNAKNTVYLQMNSPKPEDTAVYYCNTVGYRGRSNSRFYYWGQGTQVTVSS	high polyreactivity
QVQLVESGGGLVQAGGSLRLSCAASGFTFYRYAMGWYRQAPGKEREFVASISWSGGSTYYADSVKGRFTISRDNAKNTVYLQMNSLKPEDTAVYYCAATSQAYWDLWSTYYTYYYWGQGTQVTVSS	high polyreactivity
QVQLVESGGGLVQAGGSLRLSCAASGFTFYRYAMGWYRQAPGKERELVAAISRGGSTNYADSVKGRFTISRDNAKNTVYLQMNSLKPEDTAVYYCNTRYVKGFYWGQGTQVTVSS	high polyreactivity
QVQLVESGGGLVQAGGSLRLSCAASGFTFYRYAMGWYRQAPGKERELVAAISSTGDRTYYADSVKGRFTISRDNAKNTVYLQMNSLKPEDTAVYYCAAPYQNQVEFNYWGQGTQVTVSS	high polyreactivity
QVQLVESGGGLVQAGGSLRLSCAASGFTFYRYAMGWYRQAPGKERELVAAITWSGGSTYYADSVKGRFTISRDNAKNTVYLQMNSLKPEDTAVYYCAASRWIFQVNDYDYWGQGTQETVSS	high polyreactivity
QVQLVESGGGLVQAGGSLRLSCAASGFTFYRYAMGWYRQAPGKERELVATISASGASTYYADSVKGRFSISRDNAKNNVYLQMNRLKPEDTAVYYCAVRYKSWYGFNYWGQGTQVTVSS	high polyreactivity
QVQLVESGGGLVQAGGSLRLSCAASGFTFYRYAMGWYRQAPGKERELVAVITRGGSTNYADSVKGRFTISRDNAKNTVYLQMNSLKPEDTAVYYCAARWFAGDWDYWYDYWGQGTQVTVSS	low polyreactivity
QVQLVESGGGLVQAGGSLRLSCAASGFTFYRYARGWYRQAPGKERELVAAISSDGTTYYADSVKGRFTISRDNATNTVYLQMNSLKPEDTAVYYCAKRGYYRSRRYDYWGQGTQVTVSS	high polyreactivity
